This is an account of results in US20230416330A1, “Optimized GIP Peptide Analogues” (Antag Therapeutics ApS, priority 2019, published 2023).

Starred links: 1 amine or outer side, 2 acyl side, 3 side chain; linkers in the order of their positions; H or OH if unused. Non-standard residues stand in square brackets, D forms with d. Groups on a side chain read outwards from the residue. No end group written: not given here. *: point of attachment. C18 diacid = O=C(O)CCCCCCCCCCCCCCCCC(=O)*; C16 diacid = O=C(O)CCCCCCCCCCCCCCC(=O)*; γGlu = O=C(O)[C@H](CCC(=O)[*:2])N[*:1]; Glutaryl = O=C(CCCC(=O)[*:2])[*:1]; Nle = CCCC[C@H](N)C(=O)O; AEEA = NCCOCCOCC(=O)O; Aib = CC(C)(N)C(=O)O

For the experiment, the target named is T1, human GIP receptor (human, UniProt P48546 22-466).
T1 sequence (looked up): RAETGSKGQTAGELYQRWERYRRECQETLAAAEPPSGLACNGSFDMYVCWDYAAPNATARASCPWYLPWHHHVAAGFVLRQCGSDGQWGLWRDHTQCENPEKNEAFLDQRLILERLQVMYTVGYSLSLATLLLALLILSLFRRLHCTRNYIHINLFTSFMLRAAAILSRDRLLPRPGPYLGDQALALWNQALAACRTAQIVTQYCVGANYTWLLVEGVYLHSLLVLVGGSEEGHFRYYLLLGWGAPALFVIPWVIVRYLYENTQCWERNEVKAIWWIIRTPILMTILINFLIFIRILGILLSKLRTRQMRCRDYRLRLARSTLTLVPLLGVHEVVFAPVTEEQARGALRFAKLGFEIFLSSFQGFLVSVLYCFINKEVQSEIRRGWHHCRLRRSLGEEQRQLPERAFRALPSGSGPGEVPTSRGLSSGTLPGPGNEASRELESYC
Put plainly: cell-based or functional assay.

B1: AT682 (peptide)
peptide: EGTFISDYSIALDKIK([AEEA-AEEA-γGlu-C18 diacid])QQDFVEWLLAQKPSSGAPPPS-OH
modifications: N-terminus assumed
SMILES: CC[C@H](C)[C@H](NC(=O)[C@H](CO)NC(=O)[C@H](Cc1ccc(O)cc1)NC(=O)[C@H](CC(=O)O)NC(=O)[C@H](CO)NC(=O)[C@@H](NC(=O)[C@H](Cc1ccccc1)NC(=O)[C@@H](NC(=O)CNC(=O)[C@@H](N)CCC(=O)O)[C@@H](C)O)[C@@H](C)CC)C(=O)N[C@@H](C)C(=O)N[C@@H](CC(C)C)C(=O)N[C@@H](CC(=O)O)C(=O)N[C@@H](CCCCN)C(=O)N[C@H](C(=O)N[C@@H](CCCCNC(=O)COCCOCCNC(=O)COCCOCCNC(=O)CC[C@H](NC(=O)CCCCCCCCCCCCCCCCC(=O)O)C(=O)O)C(=O)N[C@@H](CCC(N)=O)C(=O)N[C@@H](CCC(N)=O)C(=O)N[C@@H](CC(=O)O)C(=O)N[C@@H](Cc1ccccc1)C(=O)N[C@H](C(=O)N[C@@H](CCC(=O)O)C(=O)N[C@@H](Cc1c[nH]c2ccccc12)C(=O)N[C@@H](CC(C)C)C(=O)N[C@@H](CC(C)C)C(=O)N[C@@H](C)C(=O)N[C@@H](CCC(N)=O)C(=O)N[C@@H](CCCCN)C(=O)N1CCC[C@H]1C(=O)N[C@@H](CO)C(=O)N[C@@H](CO)C(=O)NCC(=O)N[C@@H](C)C(=O)N1CCC[C@H]1C(=O)N1CCC[C@H]1C(=O)N1CCC[C@H]1C(=O)N[C@@H](CO)C(=O)O)C(C)C)[C@@H](C)CC
Consider B1, for which the “cAMP antagonism % inhib (CisBio assay)” value was 89%; the “cAMP antagonism nM (IC50, CisBio assay)” value is 13.6 nM; the “cAMP antagonism pIC50 (CisBio assay)” value stood at 7.9.

B2: AT693 (peptide)
peptide: EGTFISEYSIALEKIK([AEEA-AEEA-γGlu-C18 diacid])QQEFVEWLLAQKPSSGAPPPS-OH
modifications: N-terminus assumed
SMILES: CC[C@H](C)[C@H](NC(=O)[C@H](CO)NC(=O)[C@H](Cc1ccc(O)cc1)NC(=O)[C@H](CCC(=O)O)NC(=O)[C@H](CO)NC(=O)[C@@H](NC(=O)[C@H](Cc1ccccc1)NC(=O)[C@@H](NC(=O)CNC(=O)[C@@H](N)CCC(=O)O)[C@@H](C)O)[C@@H](C)CC)C(=O)N[C@@H](C)C(=O)N[C@@H](CC(C)C)C(=O)N[C@@H](CCC(=O)O)C(=O)N[C@@H](CCCCN)C(=O)N[C@H](C(=O)N[C@@H](CCCCNC(=O)COCCOCCNC(=O)COCCOCCNC(=O)CC[C@H](NC(=O)CCCCCCCCCCCCCCCCC(=O)O)C(=O)O)C(=O)N[C@@H](CCC(N)=O)C(=O)N[C@@H](CCC(N)=O)C(=O)N[C@@H](CCC(=O)O)C(=O)N[C@@H](Cc1ccccc1)C(=O)N[C@H](C(=O)N[C@@H](CCC(=O)O)C(=O)N[C@@H](Cc1c[nH]c2ccccc12)C(=O)N[C@@H](CC(C)C)C(=O)N[C@@H](CC(C)C)C(=O)N[C@@H](C)C(=O)N[C@@H](CCC(N)=O)C(=O)N[C@@H](CCCCN)C(=O)N1CCC[C@H]1C(=O)N[C@@H](CO)C(=O)N[C@@H](CO)C(=O)NCC(=O)N[C@@H](C)C(=O)N1CCC[C@H]1C(=O)N1CCC[C@H]1C(=O)N1CCC[C@H]1C(=O)N[C@@H](CO)C(=O)O)C(C)C)[C@@H](C)CC
Take B2: the “cAMP antagonism % inhib (CisBio assay)” value stood at 96%; the “cAMP antagonism nM (IC50, CisBio assay)” value turned out to be 1.26 nM; the “cAMP antagonism pIC50 (CisBio assay)” value was determined as 8.9.

As to EGTFISDYSI[Aib][Nle]DKIK([AEEA-AEEA-γGlu-C18 diacid])QQDFVEWLLAQKPSSGAPPPS-OH [AT686], the “cAMP antagonism % inhib (CisBio assay)” value was found to be 82%; the “cAMP antagonism nM (IC50, CisBio assay)” value was 3.42 nM; the “cAMP antagonism pIC50 (CisBio assay)” value was found to be 8.5.

Regarding EGTFISDYSIA[Nle]DKIK([AEEA-AEEA-γGlu-C18 diacid])QQDFVEWLLAQKPSSGAPPPS-OH [AT683], the “cAMP antagonism % inhib (CisBio assay)” value turned out to be 93%; the “cAMP antagonism nM (IC50, CisBio assay)” value came out at 15.9 nM; the “cAMP antagonism pIC50 (CisBio assay)” value was determined as 7.8.

B3: AT695 (peptide)
peptide: EGTFISEYSI[Aib]LEKIK([AEEA-AEEA-γGlu-C18 diacid])QQEFVEWLLAQKPSSGAPPPS-OH
modifications: N-terminus assumed
SMILES: CC[C@H](C)[C@H](NC(=O)[C@H](CCCCN)NC(=O)[C@H](CCC(=O)O)NC(=O)[C@H](CC(C)C)NC(=O)C(C)(C)NC(=O)[C@@H](NC(=O)[C@H](CO)NC(=O)[C@H](Cc1ccc(O)cc1)NC(=O)[C@H](CCC(=O)O)NC(=O)[C@H](CO)NC(=O)[C@@H](NC(=O)[C@H](Cc1ccccc1)NC(=O)[C@@H](NC(=O)CNC(=O)[C@@H](N)CCC(=O)O)[C@@H](C)O)[C@@H](C)CC)[C@@H](C)CC)C(=O)N[C@@H](CCCCNC(=O)COCCOCCNC(=O)COCCOCCNC(=O)CC[C@H](NC(=O)CCCCCCCCCCCCCCCCC(=O)O)C(=O)O)C(=O)N[C@@H](CCC(N)=O)C(=O)N[C@@H](CCC(N)=O)C(=O)N[C@@H](CCC(=O)O)C(=O)N[C@@H](Cc1ccccc1)C(=O)N[C@H](C(=O)N[C@@H](CCC(=O)O)C(=O)N[C@@H](Cc1c[nH]c2ccccc12)C(=O)N[C@@H](CC(C)C)C(=O)N[C@@H](CC(C)C)C(=O)N[C@@H](C)C(=O)N[C@@H](CCC(N)=O)C(=O)N[C@@H](CCCCN)C(=O)N1CCC[C@H]1C(=O)N[C@@H](CO)C(=O)N[C@@H](CO)C(=O)NCC(=O)N[C@@H](C)C(=O)N1CCC[C@H]1C(=O)N1CCC[C@H]1C(=O)N1CCC[C@H]1C(=O)N[C@@H](CO)C(=O)O)C(C)C
B3: the “cAMP antagonism % inhib (CisBio assay)” value was determined as 98%; the “cAMP antagonism nM (IC50, CisBio assay)” value is 0.794 nM; the “cAMP antagonism pIC50 (CisBio assay)” value is 9.1.

B4: AT677 (peptide)
peptide: Glutaryl-GTFISDYSIAMDKIK(C16 diacid)QQDFVNWLLAQKPSSGAPPPS-OH
SMILES: CC[C@H](C)[C@H](NC(=O)[C@H](CO)NC(=O)[C@H](Cc1ccc(O)cc1)NC(=O)[C@H](CC(=O)O)NC(=O)[C@H](CO)NC(=O)[C@@H](NC(=O)[C@H](Cc1ccccc1)NC(=O)[C@@H](NC(=O)CNC(=O)CCCC(=O)O)[C@@H](C)O)[C@@H](C)CC)C(=O)N[C@@H](C)C(=O)N[C@@H](CCSC)C(=O)N[C@@H](CC(=O)O)C(=O)N[C@@H](CCCCN)C(=O)N[C@H](C(=O)N[C@@H](CCCCNC(=O)CCCCCCCCCCCCCCC(=O)O)C(=O)N[C@@H](CCC(N)=O)C(=O)N[C@@H](CCC(N)=O)C(=O)N[C@@H](CC(=O)O)C(=O)N[C@@H](Cc1ccccc1)C(=O)N[C@H](C(=O)N[C@@H](CC(N)=O)C(=O)N[C@@H](Cc1c[nH]c2ccccc12)C(=O)N[C@@H](CC(C)C)C(=O)N[C@@H](CC(C)C)C(=O)N[C@@H](C)C(=O)N[C@@H](CCC(N)=O)C(=O)N[C@@H](CCCCN)C(=O)N1CCC[C@H]1C(=O)N[C@@H](CO)C(=O)N[C@@H](CO)C(=O)NCC(=O)N[C@@H](C)C(=O)N1CCC[C@H]1C(=O)N1CCC[C@H]1C(=O)N1CCC[C@H]1C(=O)N[C@@H](CO)C(=O)O)C(C)C)[C@@H](C)CC
B4: the “cAMP antagonism % inhib (CisBio assay)” value is 93%; the “cAMP antagonism nM (IC50, CisBio assay)” value worked out at 0.447 nM; the “cAMP antagonism pIC50 (CisBio assay)” value was found to be 9.4.

Take EGTFISDYSI[Aib]LDKIK([AEEA-AEEA-γGlu-C18 diacid])QQDFVEWLLAQKPSSGAPPPS-OH [AT685]: the “cAMP antagonism % inhib (CisBio assay)” value came out at 83%; the “cAMP antagonism nM (IC50, CisBio assay)” value was 2 nM; the “cAMP antagonism pIC50 (CisBio assay)” value came out at 8.7.

B5: AT694 (peptide)
peptide: EGTFISEYSIA[Nle]EKIK([AEEA-AEEA-γGlu-C18 diacid])QQEFVEWLLAQKPSSGAPPPS-OH
modifications: N-terminus assumed
SMILES: CCCC[C@H](NC(=O)[C@H](C)NC(=O)[C@@H](NC(=O)[C@H](CO)NC(=O)[C@H](Cc1ccc(O)cc1)NC(=O)[C@H](CCC(=O)O)NC(=O)[C@H](CO)NC(=O)[C@@H](NC(=O)[C@H](Cc1ccccc1)NC(=O)[C@@H](NC(=O)CNC(=O)[C@@H](N)CCC(=O)O)[C@@H](C)O)[C@@H](C)CC)[C@@H](C)CC)C(=O)N[C@@H](CCC(=O)O)C(=O)N[C@@H](CCCCN)C(=O)N[C@H](C(=O)N[C@@H](CCCCNC(=O)COCCOCCNC(=O)COCCOCCNC(=O)CC[C@H](NC(=O)CCCCCCCCCCCCCCCCC(=O)O)C(=O)O)C(=O)N[C@@H](CCC(N)=O)C(=O)N[C@@H](CCC(N)=O)C(=O)N[C@@H](CCC(=O)O)C(=O)N[C@@H](Cc1ccccc1)C(=O)N[C@H](C(=O)N[C@@H](CCC(=O)O)C(=O)N[C@@H](Cc1c[nH]c2ccccc12)C(=O)N[C@@H](CC(C)C)C(=O)N[C@@H](CC(C)C)C(=O)N[C@@H](C)C(=O)N[C@@H](CCC(N)=O)C(=O)N[C@@H](CCCCN)C(=O)N1CCC[C@H]1C(=O)N[C@@H](CO)C(=O)N[C@@H](CO)C(=O)NCC(=O)N[C@@H](C)C(=O)N1CCC[C@H]1C(=O)N1CCC[C@H]1C(=O)N1CCC[C@H]1C(=O)N[C@@H](CO)C(=O)O)C(C)C)[C@@H](C)CC
In the case of B5, the “cAMP antagonism % inhib (CisBio assay)” value came out at 88%; the “cAMP antagonism nM (IC50, CisBio assay)” value amounted to 1.47 nM; the “cAMP antagonism pIC50 (CisBio assay)” value stood at 8.8.
